According to US20210063414A1, “METHODS FOR PREVENTING AND/OR TREATING BONE LOSS CONDITIONS BY MODULATING IRISIN” (Dana-Farber Cancer Institute, Inc., priority 2018, published 2021):

Target: T1, MLO-Y4 cell surface proteins (Mus musculus, UniProt E9Q9D8)
T1 construct: endogenous in cells; host or cells: MLO-Y4
T1 sequence (E9Q9D8 1-996): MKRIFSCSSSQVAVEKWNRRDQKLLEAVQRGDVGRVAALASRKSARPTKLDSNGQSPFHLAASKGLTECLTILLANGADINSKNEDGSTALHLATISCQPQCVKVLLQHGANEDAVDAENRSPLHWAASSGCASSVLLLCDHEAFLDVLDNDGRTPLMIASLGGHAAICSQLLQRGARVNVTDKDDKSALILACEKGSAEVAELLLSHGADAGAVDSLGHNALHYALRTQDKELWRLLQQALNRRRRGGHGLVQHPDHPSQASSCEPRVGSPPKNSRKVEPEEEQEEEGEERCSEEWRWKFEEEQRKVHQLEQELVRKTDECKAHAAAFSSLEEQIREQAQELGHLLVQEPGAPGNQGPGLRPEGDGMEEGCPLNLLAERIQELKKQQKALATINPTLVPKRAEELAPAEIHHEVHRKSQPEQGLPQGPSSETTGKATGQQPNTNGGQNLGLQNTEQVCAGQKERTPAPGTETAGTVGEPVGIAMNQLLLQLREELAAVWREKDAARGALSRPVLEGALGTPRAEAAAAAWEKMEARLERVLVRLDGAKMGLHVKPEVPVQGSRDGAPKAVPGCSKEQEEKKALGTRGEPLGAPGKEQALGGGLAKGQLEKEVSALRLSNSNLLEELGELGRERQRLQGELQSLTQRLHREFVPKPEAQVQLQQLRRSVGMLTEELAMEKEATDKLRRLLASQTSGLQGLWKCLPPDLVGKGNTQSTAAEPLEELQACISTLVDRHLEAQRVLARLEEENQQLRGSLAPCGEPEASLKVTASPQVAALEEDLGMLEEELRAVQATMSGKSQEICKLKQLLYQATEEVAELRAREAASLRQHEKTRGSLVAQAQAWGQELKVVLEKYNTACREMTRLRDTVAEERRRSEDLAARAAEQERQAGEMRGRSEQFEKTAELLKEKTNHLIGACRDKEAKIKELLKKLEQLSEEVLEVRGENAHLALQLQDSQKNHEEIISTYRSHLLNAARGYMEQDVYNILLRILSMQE
Assay: Crosslinking/co-immunoprecipitation/mass spectrometry (TMT quantitative proteomics) to identify irisin receptors
Type: binding
Details: co-precipitated protein Ankrd35 (E9Q9D8_MOUSE)
Protocol: MLO-Y4 cells were seeded on 30×150 mm type-I collagen coated dishes as described in cell culture experiment. At 60% cell density, medium was switched to FreeStyle™ 293 Expression medium. After 4 hours incubation, the cells were chilled on ice for 10 minutes, followed by treatment of 10 nM his-tag irisin or his-tag adipsin for 20 minutes. The cells were then incubated with 1.5 mM DTSSP for 30 minutes on ice to do cross-linking, after washing with 15 ml cold PBS twice. The cross-linking was quenched by addition of a final concentration of 20 mM Tris-pH 7.5. The cells were then harvested and homogenized in 1 ml RIPA buffer containing proteaseinhibitor cocktailand phosphatase-inhibitor cocktail. Whole-cell lysates were homogenized by 10 times passages through a 22G needle fitted to a 3 ml syringe. Homogenized samples were rotated gently in cold room for 20 minutes followed by 15,000×g centrifugation for 10 minutes. After addition of a final concentration of 10 mM imidazole, supernatants were incubated with 100 μl Ni-NTA agarose for 1 hour. After centrifugation at 500×g for 1 minute, the supernatants were aspirated and 1 ml cold RIPA buffer containing 10 mM imidazole were added to the agarose. After 10 minutes rotation in cold room, the supernatants were aspirated and 1 ml cold RIPA buffer containing 30 mM imidazole were added to the agarose. After repeating the washing 3 times, 0.8 ml RIPA buffer containing 250 mM imidazole was added and the agarose was gently rotated in a cold room for 20 minutes. After centrifugation at 1000×g for 2 minutes, the supernatants were transferred to 1.5 ml tube and incubated with 100 μl 0.2% sodium deoxycholate and 100 μl 10% trichloroacetic acid in ice for 1 hour. After centrifugation at 12,000×g for 10 minutes at 4° C., the supernatants were removed and 1 ml cold acetone was added to the pellets followed by vortexing for 10 seconds. After one more washing with cold acetone, the pellets were dried at 37° C., and 39 μl PBS and 13 μl 4×NuPAGE LDS were added to the pellets with a final concentration of 5 mM DTT. Solubilized proteins were incubated at 65° C. for 20 minutes followed by incubation with a final concentration of 14 mM iodoacetamide for 45 minutes in the dark. 38 μl samples were loaded to 4-12% gradient SDS-PAGE for separation followed by Coomassie Blue staining. The gels were submitted to quantitative proteomics.
For in-gel digestions, gels were stained with Coomassie Blue and were excised into 8 equal segments for control and irisin lanes. Gel pieces were destained and dehydrated with 100% acetonitrile, vacuumed dried, and digested in 25 mM HEPES (pH 8.5) with 500 ng sequencing grade trypsin (Promega) and incubated for an overnight at 37° C. (Shevchenko et al. (1996) Anal. Chem. 68:850-858). Digests were treated with 1% formic acid and purified using C18 Stage-Tips as previously described (Rappsilber et al. (2007) Nat. Protoc. 2:1896-1906). Peptides were eluted with 70% acetonitrile and 1% formic acid, then dried using a speedvac. Isobaric labeling of digested peptides was accomplished using 6-plex tandem mass tag (TMT) reagents (Thermo Fisher Scientific, Rockford, Ill.). Reagents, 5.0 mg, were dissolved in 252 μl acetonitrile (ACN) and 5 μl of the solution was added to the digested peptides dissolved in 25 μl of 200 mM HEPES, pH 8.5. After 1 hour at room temperature, the reaction was quenched by adding 1 μl of 5% hydroxylamine. Labeled peptides were combined and acidified prior to C18 Stage-Tips desalting.
All LC-MS/MS experiments were performed on an Orbitrap Fusion™ Lumos mass spectrometer (Thermo Fisher Scientific, San Jose, Calif., USA) coupled with a Proxeon EASY-nLC™ 1200 LC pump (Thermo Fisher Scientific). Peptides were separated on a 100 μm inner diameter microcapillary column packed with 35 cm of Accucore™ C18 resin (1.8 μm, 100 Å, Thermo Fisher Scientific). […]

B1: irisin: secreted cleaved form of FNDC5; recombinant human/mouse irisin with C-terminal his tag produced in HEK293 cells (protein)
chain: DSPSAPVNVTVRHLKANSAVVSWDVLEDEVVIGFAISQQKKDVRMLRFIQEVNTTTRSCALWDLEEDTEYIVHVQAISIQGQSPASEPVLFKTPREAEKMASKNKDEVTMKE
modifications: left off: small tags and cut ends
notes: secreted cleaved form of FNDC5; recombinant human/mouse irisin with C-terminal his tag produced in HEK293 cells
In the case of B1, the TMT signal-to-noise ratio is reported as 3.32 and the “irisin/adipsin TMT signal-to-noise ratio” value is reported as 0.011.
